Experiment [1] deals with T1, full length human Bad expressed as a fusion protein with the DNA-binding protein LexA (bait, vector pEGE202) (human, UniProt P0A7C2 1-202 (Escherichia coli entry)).
T1 construct: Expressed in yeast EGY191 for the two-hybrid assay; also called Bad-bait; LexA-Bad
T1 sequence: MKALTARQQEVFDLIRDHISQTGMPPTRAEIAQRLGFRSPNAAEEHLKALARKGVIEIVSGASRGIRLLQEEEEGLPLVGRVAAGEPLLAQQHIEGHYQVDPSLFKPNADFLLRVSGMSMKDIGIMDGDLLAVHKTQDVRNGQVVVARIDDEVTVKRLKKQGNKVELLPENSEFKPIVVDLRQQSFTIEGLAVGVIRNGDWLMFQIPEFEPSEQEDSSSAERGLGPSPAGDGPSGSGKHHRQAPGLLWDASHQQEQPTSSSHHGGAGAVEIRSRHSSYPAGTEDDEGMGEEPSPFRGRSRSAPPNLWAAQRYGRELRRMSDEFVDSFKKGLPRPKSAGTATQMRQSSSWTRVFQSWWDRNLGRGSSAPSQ
In words: yeast two-hybrid, beta-galactosidase reporter (LexA-Bad bait, B42 prey). From the text: Briefly, the full length human Bad sequence was subcloned into the yeast 2-hybrid vector pEGE202, or “bait-vector” to express Bad as a fusion protein wish the DNA-binding protein LexA (Ruden et al., Nature (1991) 350:426-430). Human Bcl-2, Bcl-X, Bax, Bak and Bad were similarly cloned into the yeast 2-hybrid vector pJG4-5, or “prey-vector” to expressed these Bcl-2 family members as fusion proteins with the transcriptional activator B42 (Gyuris et al., Cell (1993) 75:791-803). Briefly, the full length human Bad sequence was amplified by PCR and subcloned into the bait-vector. For the PCR reaction we used the following primers: 5′ATCAGTGAATTCACTATGTTCCAGATCCCA GAC3′ (SEQ ID NO: 4) and 5′ ATCGATCTCGAGTCACTGGGAGGGGGCGGA GCT3′ (SEQ ID NO: 5). The resultant PCR fragment was digested with EcoRI and Xho I and then subcloned into the bait vector. The human Bad sequence was also PCR amplified and subcloned into the prey-vector using the same primers and subcloning strategy as described above. […]
To determine if human Bad binds to any of the above Bcl-2 family members, the Bad-bait plasmid was cotransformed with every prey plasmid and the reporter plasmid p18-34 into the yeast strain EGY191. […] The reaction was stopped with 0.4 M NaOH and the plate was read at an OD 420 nm.

Experiment [2] deals with T2, GST-Bcl-xL fusion protein (pGEX 4T1, N-terminal glutathione-S-transferase tag) (human, UniProt Q07817 1-212).
T2 construct: no residue range is printed; also called pGEX-Bcl-XL
T2 sequence (Q07817 1-212): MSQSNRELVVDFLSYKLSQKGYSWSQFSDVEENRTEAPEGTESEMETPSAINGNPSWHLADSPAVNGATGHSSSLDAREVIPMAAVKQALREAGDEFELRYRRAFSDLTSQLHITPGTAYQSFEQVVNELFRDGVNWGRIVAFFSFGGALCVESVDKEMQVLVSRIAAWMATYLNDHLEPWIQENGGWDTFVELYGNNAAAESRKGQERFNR
In words: ELISA, 6HBad coated on the plate, GST fusion in solution, anti-GST detection. Background: An ELISA detects its analyte on a solid surface through an enzyme-linked reagent.

For experiment [3], the target named is T3, GST-Bax fusion protein (pGEX 4T1, N-terminal glutathione-S-transferase tag) (human, UniProt Q07812 1-171).
T3 construct: no residue range is printed; also called pGEX Bax
T3 sequence (Q07812 1-171): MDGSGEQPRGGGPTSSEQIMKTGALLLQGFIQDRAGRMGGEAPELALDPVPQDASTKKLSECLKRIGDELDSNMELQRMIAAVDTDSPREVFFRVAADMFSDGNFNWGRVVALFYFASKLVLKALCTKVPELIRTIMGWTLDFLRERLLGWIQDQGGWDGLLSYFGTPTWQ
Described as above.

B1: human Bak expressed as a fusion protein with the transcriptional activator B42 (prey, vector pJG4-5) (other, UniProt Q16611 1-187, looked up, not shown: large carriers)
chain: MASGQGPGPPRQECGEPALPSASEEQVAQDTEEVFRSYVFYRHQQEQEAEGVAAPADPEMVTLPLQPSSTMGQVGRQLAIIGDDINRRYDSEFQTMLQHLQPTAENAYEYFTKIATSLFESGINWGRVVALLGFGYRLALHVYQHGLTGFLGQVTRFVVDFMLHHCIARWIAQRGGWVAALNLGNGP
notes: no residue range is printed; also called B42-Bak
Consider B1, for which the binding result in experiment [1] is “no binding”.

B2: 6HBad fusion protein (full length human Bad with N-terminal six residue Histidine tag, construct pET-15 6H Bad) (other, not shown: small tags and cut ends)
chain: MFQIPEFEPSEQEDSSSAERGLGPSPAGDGPSGSGKHHRQAPGLLWDASHQQEQPTSSSHHGGAGAVEIRSRHSSYPAGTEDDEGMGEEPSPFRGRSRSAPPNLWAAQRYGRELRRMSDEFVDSFKKGLPRPKSAGTATQMRQSSSWTRVFQSWWDRNLGRGSSAPSQ
notes: Made in E. coli BL21 plysS, purified on nickel, coated on ELISA plates at 4 ug/ml; also called human 6HBad
In the case of B2, the binding result is reported as “binds” in experiment [2] and “no binding” in experiment [3].

B3: human Bad expressed as a fusion protein with the transcriptional activator B42 (prey, vector pJG4-5) (other, not shown: large carriers)
chain: MFQIPEFEPSEQEDSSSAERGLGPSPAGDGPSGSGKHHRQAPGLLWDASHQQEQPTSSSHHGGAGAVEIRSRHSSYPAGTEDDEGMGEEPSPFRGRSRSAPPNLWAAQRYGRELRRMSDEFVDSFKKGLPRPKSAGTATQMRQSSSWTRVFQSWWDRNLGRGSSAPSQ
notes: also called itself; B42-Bad
On to B3, for which the binding result in experiment [1] is on record as “no binding”.
